Reference: article PMC11446271

Assays:
[1] = tested on: Pab1p (poly(A)-binding protein) (Saccharomyces cerevisiae); experiment: single-molecule eIF1 dwell time, hyperbolic fit; conditions: 5' cap, 3' poly(A) tail
[2] = tested on: Pab1p (poly(A)-binding protein) (Saccharomyces cerevisiae); experiment: EMSA

Substance	Kd [1]	Kd [2]
PAB1 mRNA, capped and poly(A)-tailed	13 nM	
PAB1 mRNA, non-polyadenylated		25 nM
